Measurements taken from PMC5663973.

Biological target: DHR2 domain of human DOCK5 (residues I1212-L1642) (human)
Test: SEC-SAXS; unbound DOCK5^DHR2 at 80 μM; BioSEC-3 column; 20 mM Tris pH 8.0, 150 mM NaCl, 0.5 mM EDTA; 295 K

stoichiometry N: 2
Substance: DHR2 domain of human DOCK5 (residues I1212-L1642) (domain or fragment)
